Experimental data reported in PMC5085163.

Molecular target: transducin-like enhancer of split 1 (TLE1) (human (endogenous in synovial sarcoma and control cell lines and tumor tissue)) (UniProt Q04724)
Experiment: proximity ligation; Duolink In Situ Red kit on cultured cells fixed with 3% formaldehyde and permeabilized with 0.1% Triton X-100; rabbit anti-SS18 and mouse anti-TLE1 primary antibodies overnight at 4°C; nuclear foci per nucleus; also done after HDAC inhibitors, SXT1596 and siRNA/shRNA against SS18-SSX

UniProt Q04724, sequence (Q04724 whole entry): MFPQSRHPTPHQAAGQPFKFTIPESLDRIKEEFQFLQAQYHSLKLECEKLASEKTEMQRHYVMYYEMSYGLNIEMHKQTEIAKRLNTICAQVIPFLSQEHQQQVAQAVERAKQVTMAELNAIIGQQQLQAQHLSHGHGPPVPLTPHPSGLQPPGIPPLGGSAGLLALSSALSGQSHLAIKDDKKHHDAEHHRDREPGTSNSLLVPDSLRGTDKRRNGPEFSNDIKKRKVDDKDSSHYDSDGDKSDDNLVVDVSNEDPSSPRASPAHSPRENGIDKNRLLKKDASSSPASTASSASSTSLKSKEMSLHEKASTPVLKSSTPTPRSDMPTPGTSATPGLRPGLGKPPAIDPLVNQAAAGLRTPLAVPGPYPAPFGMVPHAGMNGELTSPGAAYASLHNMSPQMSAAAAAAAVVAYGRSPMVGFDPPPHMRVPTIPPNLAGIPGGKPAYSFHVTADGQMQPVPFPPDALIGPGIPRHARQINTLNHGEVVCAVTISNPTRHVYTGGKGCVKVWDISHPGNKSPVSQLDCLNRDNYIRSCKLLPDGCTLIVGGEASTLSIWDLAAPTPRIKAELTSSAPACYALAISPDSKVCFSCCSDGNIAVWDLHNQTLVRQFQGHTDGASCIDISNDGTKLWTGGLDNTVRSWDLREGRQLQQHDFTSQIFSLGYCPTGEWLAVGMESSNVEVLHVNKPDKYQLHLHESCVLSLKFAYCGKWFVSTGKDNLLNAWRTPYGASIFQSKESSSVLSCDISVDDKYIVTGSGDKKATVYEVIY

Row | fold PLA signal over control cell lines | Substance
1 | > 10 fold | SS18-SSX2 fusion oncoprotein (natural protein)
2 | > 10 fold | SS18-SSX1 fusion oncoprotein (natural protein)
